Measurements published in the supplement of paper PMC9112550, “Optimization of the antimicrobial peptide Bac7 by deep mutational scanning” (BMC Biology, 2022).

Each sequence was assayed on Escherichia coli TOP10 (assay: shrunken log2 fold change of peptide-encoding DNA abundance (4.5 h post-induction vs induction); higher = less antimicrobial activity (less host growth inhibition)). Details: time post-induction: 4.5 h; library: site-saturation at positions 5, 18, 19, 20.
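Also: peptides expressed intracellularly from a pBAD plasmid library in pooled LB shake-flask culture, induced with 0.3% L-arabinose, DNA abundance read by NGS, three biological replicates, DESeq2 with apeglm shrinkage.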

Sequence	shrunken log2 fold change
RRIRKRPPRLPRPRPRPLDAPRP	0.748
RRIRARPPRLPRPRPRPGVLPRP	0.2
RRIRSRPPRLPRPRPRPPAWPRP	0.436
RRIRQRPPRLPRPRPRPEFVPRP	0.031
RRIRERPPRLPRPRPRPPDTPRP	-0.426
RRIRERPPRLPRPRPRPMSFPRP	-0.314
RRIRTRPPRLPRPRPRPHSLPRP	0.0291
RRIRTRPPRLPRPRPRPGWQPRP	0.174
RRIRKRPPRLPRPRPRPNKGPRP	0.0232
RRIRERPPRLPRPRPRPNCDPRP	-0.261
RRIRWRPPRLPRPRPRPNKRPRP	0.149
RRIRRRPPRLPRPRPRPCGTPRP	0.363
RRIRWRPPRLPRPRPRPRIFPRP	0.499
RRIRSRPPRLPRPRPRPGDHPRP	-0.338
RRIRKRPPRLPRPRPRPAPYPRP	0.212
RRIRCRPPRLPRPRPRPPICPRP	-0.248
RRIRSRPPRLPRPRPRPNKQPRP	-0.221
RRIRHRPPRLPRPRPRPWCGPRP	-0.181
RRIRERPPRLPRPRPRPISTPRP	-0.346
RRIRDRPPRLPRPRPRPWWGPRP	-0.00301

Sequence	shrunken log2 fold change
RRIRGRPPRLPRPRPRPTAGPRP	1.15
RRIRDRPPRLPRPRPRPTQMPRP	0.583
RRIRGRPPRLPRPRPRPYVHPRP	-0.142
RRIRDRPPRLPRPRPRPAPVPRP	0.49
RRIRKRPPRLPRPRPRPRWCPRP	0.251
RRIRVRPPRLPRPRPRPIEDPRP	-0.0208
RRIRFRPPRLPRPRPRPVLPPRP	-0.371
RRIRQRPPRLPRPRPRPWVEPRP	0.0249
RRIRERPPRLPRPRPRPKQPPRP	0.236
RRIRVRPPRLPRPRPRPNQHPRP	-0.289
RRIRDRPPRLPRPRPRPCSVPRP	-0.0368
RRIRNRPPRLPRPRPRPWPNPRP	-0.063
RRIRCRPPRLPRPRPRPTKRPRP	0.0767
RRIRKRPPRLPRPRPRPGNHPRP	0.0875
RRIRVRPPRLPRPRPRPSWEPRP	-0.0979
RRIRIRPPRLPRPRPRPWVAPRP	-0.00986
RRIRNRPPRLPRPRPRPIKNPRP	-0.108
RRIRKRPPRLPRPRPRPLSRPRP	0.254
RRIRVRPPRLPRPRPRPWKRPRP	-0.1
RRIRERPPRLPRPRPRPNLNPRP	-0.58

Sequence	shrunken log2 fold change
RRIRKRPPRLPRPRPRPYWYPRP	-0.667
RRIRLRPPRLPRPRPRPEMPPRP	0.365
RRIRERPPRLPRPRPRPRWIPRP	1.93
RRIRDRPPRLPRPRPRPEFCPRP	1.14
RRIRLRPPRLPRPRPRPMWVPRP	-0.314
RRIRPRPPRLPRPRPRPAYGPRP	0.144
RRIRPRPPRLPRPRPRPGMPPRP	-0.074
RRIRLRPPRLPRPRPRPVCPPRP	0.149
RRIRHRPPRLPRPRPRPFVFPRP	-0.0736
RRIRTRPPRLPRPRPRPTDSPRP	-0.106
RRIRYRPPRLPRPRPRPAKLPRP	-0.194
RRIRKRPPRLPRPRPRPRYAPRP	-0.129
RRIRTRPPRLPRPRPRPESRPRP	-0.0705
RRIRTRPPRLPRPRPRPEMLPRP	0.0362
RRIRTRPPRLPRPRPRPINNPRP	-0.793
RRIRMRPPRLPRPRPRPWDGPRP	0.0785
RRIRERPPRLPRPRPRPCYVPRP	-0.716
RRIRPRPPRLPRPRPRPSGPPRP	-0.174
RRIRQRPPRLPRPRPRPMSLPRP	-0.13
RRIRERPPRLPRPRPRPGDIPRP	-0.072
